This is an account of results in patent US20240209099A1 (SUZHOU TRANSCENTA THERAPEUTICS, published 2024).

The target of test [1] is T1, Recombinant Rhesus macaque VEGFR2/KDR Protein, His tag (rhesus macaque).
T1 construct: Expressed in HEK293, bought from ACRO Biosystems; also called rhesus VEGFR2-his; rhesus VEGFR2
T1 chain: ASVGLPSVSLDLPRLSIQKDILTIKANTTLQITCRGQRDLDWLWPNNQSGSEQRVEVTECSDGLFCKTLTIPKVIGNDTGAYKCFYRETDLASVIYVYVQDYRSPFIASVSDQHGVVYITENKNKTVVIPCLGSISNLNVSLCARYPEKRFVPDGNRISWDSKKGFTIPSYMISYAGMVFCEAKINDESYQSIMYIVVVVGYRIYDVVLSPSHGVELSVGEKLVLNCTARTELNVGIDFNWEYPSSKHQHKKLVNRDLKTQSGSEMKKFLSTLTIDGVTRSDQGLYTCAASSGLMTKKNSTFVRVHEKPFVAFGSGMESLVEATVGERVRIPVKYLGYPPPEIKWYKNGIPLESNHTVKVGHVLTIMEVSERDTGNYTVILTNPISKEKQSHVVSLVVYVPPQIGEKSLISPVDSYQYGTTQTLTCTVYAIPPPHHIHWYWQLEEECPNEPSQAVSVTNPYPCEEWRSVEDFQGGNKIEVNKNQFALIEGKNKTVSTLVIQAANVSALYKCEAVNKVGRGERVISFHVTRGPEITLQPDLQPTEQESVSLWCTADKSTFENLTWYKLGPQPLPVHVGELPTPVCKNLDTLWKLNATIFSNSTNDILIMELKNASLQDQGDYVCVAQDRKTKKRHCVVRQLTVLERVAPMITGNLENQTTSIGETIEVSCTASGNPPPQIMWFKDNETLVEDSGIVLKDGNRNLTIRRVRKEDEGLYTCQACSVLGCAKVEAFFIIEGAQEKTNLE
Description: ELISA, rhesus VEGFR2-his coated, anti-human Fc-HRP. On the procedure: (§1) Same protocol of Example 2 antibody screening by ELISA assay. Briefly, 0.5 μg/ml hVEGFR2-his was coated and serially diluted purified antibodies would bind to coated antigen. Using HRP conjugated goat anti-mouse Fc antibody could detect binding signals of each antibody.
(§2) Same protocol of Example 4 except using HRP conjugated goat anti-human Fc antibody as secondary antibody. Binding to hVEGFR2-his and rhesus VEGFR2-his (Acrobiosystems, Cat #VE2-C52H3) were also analyzed head-to-head.

The target in test [2] is T2, Recombinant Human VEGFR2/KDR Protein, His tag (hVEGFR2-his) (human, UniProt P35968 20-764).
T2 construct: Expressed in HEK293, bought from ACRO Biosystems; also called human VEGFR2-his; Human VEGFR2/KDR-His
Description: ELISA, hVEGFR2-his coated (0.5 ug/ml), anti-human Fc-HRP. Here is the method: as §1, §2
Background: ELISA stands for enzyme-linked immunosorbent assay.

For test [3], the target named is T2, Recombinant Human VEGFR2/KDR Protein, …. Nature of the test: competition ELISA: VEGF-A coated (0.25 ug/ml), antibody mixed with VEGFR2, detection with mouse anti-VEGFR2 serum and anti-mouse Fc-HRP; blocked ligand VEGF-A. On the procedure: For this assay, 0.25 μg/ml VEGF-A was coated on ELISA plate before a mixture of chimeric antibodies and VEGFR2 were added. To detect free VEGF-A (not bind to VEGFR2), 1:1000 diluted mouse serum (mouse previous immunized with human VEGFR2) were added and HRP conjugated goat anti-mouse Fc antibody was used as secondary antibody.

In test [4] the target is T3, human VEGFR2 on HUVEC cells (human, UniProt P35968 20-1356).
T3 construct: also called hVEGFR2 on HUVEC
Description: flow cytometry on HUVEC cells, percent shifted cells (Shift %), anti-human IgG-PE. For orientation: Flow cytometry measures light scatter and fluorescence of single cells or particles in a stream.

The target of test [5] is T2, Recombinant Human VEGFR2/KDR Protein, …. Nature of the test: ELISA, hVEGFR2-his coated, anti-human Fc-HRP. Here is the method: as §2
Same protocol of Example 9.

Test [6] has the same target. Description: SPR (Biacore), antibody captured by anti-Fc, antigen 2.5-80 nM. On the procedure:
A CM5 sensor chip was activated in each flow cell by 7-min injection (10 μl/min) of freshly prepared 1:1 50 mM N-hydroxysuccinimide (NHS): 200 mM 1-ethyl-3-(3-dimethylaminopropyl)-carbodiimide (EDC). Then anti-human Fc antibody (GE Healthcare) in a concentration of 10 μg/ml in 10 mM sodium acetate buffer PH 5.0 was injected onto the activated chip at 10 μl/min (HBS-EP running buffer: 10 mM HEPES, 150 mM NaCl, 3.4 mM EDTA, 0.005% surfactant P20, pH 7.4). The remaining active coupling sites were blocked by 7 min injection of 1M ethanolamine at 10 μl/min. The immobilization level of each flow cell is ˜9000RU. Antibodies were captured in FC2 by anti-human Fc IgG or anti-mouse Fc (GE Healthcare) to 200˜300RU. FC1 was used as the reference cell. Antigen was injected at varying concentrations (2.5 nM, 5 nM, 10 nM, 20 nM, 40 nM and 80 nM) after capture of antibody. The association time for antibody binding antigen is 180s. Surface Regeneration condition is 120s at 10 μl/min in Gly pH1.5. The signals with captured antibody subtracted from those without captured antibody were calculated with Biacore X100 evaluation software ver. 2.0 (Biacore).
For orientation: SPR reads the build-up and loss of mass on a sensor chip optically.

B1: 042C (chimeric 042) (antibody, V domains shown)
VH: EVQLVESGGDLVKPGGSLKLSCTASGFSFSIYGMSWVRQTPDKRLEWVASISVGGSYTYYADSVEGRFTISRENAKNTLYLQMNSLKSEDTALYYCARELDGNYDYWGQGTSLTVSS
VL: DIVITQNELSNPVTFGESVSISCRSSKSLLYKDGKTYLNWFLQRPGQSPQLLIYLMSTRASGVSDRFSGSGSGTDFTLEISRVKAEDVGVYYCQQLVEYPFTFGSGTKLEIK
notes: Chimeric antibody with human constant regions (vector pCP-Hck/Hcg1)
Take B1: the EC50 (commonly the midpoint of the concentration-response curve) worked out at 0.0299 µg/mL in test [1], 0.015 µg/mL in test [2] and 0.157 µg/mL in test [4]. In addition, the IC50 – broadly, the concentration needed to halve the response being measured – in test [3] worked out at 0.148 µg/mL.

B2: 054C (chimeric 054) (antibody, V domains shown)
VH: EVQLVESGGDLVKPGGSLKLSCAASGFTFSMYGMSWVRQTPDKRLEWVASISIGGSYTYYADSVEGRFIISRENAKNTLFLQMNSLKSEDTALYYCARELDGNYDYWGQGTTLTVSS
VL: HIMITQDELSNPVTFGESVSISCRSSKSLLYKDGKTYLNWFLQRPGQSPQLLIYLMSTRASGVSDRFSGSGSGTDFTLEISRVKAEDVGIYYCQQLVEYPFTFGSGTKLEIK
notes: as for B1
For the molecule B2, the EC50 in test [5] stood at 0.0186 µg/mL; in test [1], 0.0168 µg/mL; in test [2], 0.0189 µg/mL; in test [4] it was 0.0875 µg/mL. In test [3], the IC50 was determined as 0.1 µg/mL. Also, the Kd (in general, the equilibrium constant for the complex coming apart) in test [6] was 2.45 nM. In test [6], the off-rate (koff) (as a rule, a measure of how fast the partners let go of each other) is 0.000113 s⁻¹. In test [6], the kon (commonly the second-order rate constant of association) is 46000 M⁻¹ s⁻¹.

B3: 048C (chimeric 048) (antibody, V domains shown)
VH: EVQLVESGGDLVKPGGSLKLSCAASGFTFSMYGMSWVRQTPDKRLEWVASISIGGSYTYYADSVEGRFTISRENAKNTLFLQMNSLKSEDTALYYCAREMDGNYDYWGHGTTLTVSS
VL: DVMITQDELSNPVTFGESVSISCRSSKSLLYKDGKTYLNWFLQRPGQSPQLLIYLMSTRASGVSDRFSGSGSGTDFTLEISRVKAEDVGIYYCQQLVEYPFTFGSGTKLEIK
notes: as for B1
For the molecule B3, the EC50 in test [5] was found to be 0.00574 µg/mL; in test [1] it was 0.0101 µg/mL; in test [2], 0.0053 µg/mL. The IC50 in test [3] is 0.09 µg/mL.

B4: 002C (chimeric 002) (antibody, V domains shown)
VH: QVQLQQSGPELVKPGASVKISCKASGYAFSSSWMNWVKQRPGEGLEWIGRIFPGDGDTYYNGKFQVKATLTADKSSSTAYMQLSSLTSEDSAVYFCAIFLDTSGRYVDYWGQGTTLTISS
VL: DIVMTQSHKFMSTSVGDRVSITCKASQDVNTAVAWYQQKPGQSPKLLIYSASYRYIGVPDRFTGSGSGTDFTFTISSVQSEDLTVYYCQQHYRAPLTFGSGTKLELK
notes: Mouse variable regions cloned into expression vector pCP-Hck/Hcg1 (human constant regions; detected with anti-human Fc)
Turning to B4, the concentration for a half-maximal effect (EC50) turned out to be 0.0209 µg/mL in test [1], 0.0308 µg/mL in test [2] and 0.0823 µg/mL in test [4]. In addition, the IC50 in test [3] stood at 2.11 µg/mL.
